Experimental data from article PMC12080921 (2025).

B1: PmSLP-1^15-318 (domain or fragment)
chain: MEKRTVTIPQAQKVAEKPALTIQTVVTSPTTPIKAPSLAPTIDTAPKQNPVPTAQITATLPAEPVKVPVLIPEVNKTLLETSTNPVKDSYNKDAVFTYELIANPDADYSDQKLILKKEISYIKLNLGINQDNKNAPSYIFNLLDDNVYYGFYRDTQDMNRIENKYTYAFKKEAENFDNLQKFNATYEGQFWFSSIDTPNVPTVARAFLTYNNGRVDGEILAKHWNEKLFQITGFDNNPRKVEIFPTVEYLPNSGTRLTKGATSPHRFQMDLHFINSTNGEKNKYLVGQGSTEQYWGVLGMEKKQELALVPR
B2: biotinylated bovine FI (enzyme)
chain 1: EDNFRKRGKSKAVKKSEAHHAPEASLSKETEASSEVKPTSTQDTSQKDFVDKKCLTEKHTHLSCNKVFCQPWQKCIDGTCLCKLPYQCPKNGTRVCSTNGKSYSTYCQQKSFECYRPEAKFLKSGACTGGGQFSVSLSNGKQDSEGIVAVKLADLDTKMFVCGDSWSITEANVACIDRGFQLGALDTHRRDPDPNSAECLHVRCRGLETSLAECTFTKGVHNSEGLAGVVCYTESAAPPKKDSFQCVNGKRIPQKKACDGVNDCVDKSDELCCKDCRGEGFLCKSGVCIPKQYKCNGELDCITGEDEVGCEETGHPEIKEAAEMLTADMDAERKFTKSFLPKLSCGVKNNMHI
chain 2: VVGGKPAKMGEFPWQMAIKEGDKIHCGGIYIGGCWILTAAHCVRISRMHRYQIWTSFTDWLRPGFQTVVHSVNRIIIHENYNGTTYQNDIALIEMKKRPNEKECVLSKSIPACVPWSPYLFQPNDKCIVSGWGREKDNQKVYSLRWGEVHLINNCSEFYPGRYFEKEMQCAGTDDGSIDACKGDSGGPLVCQDVNNVTYVWGVVSWGENCGKSEFPGVYTKVANYFDWISQHVGRSLISQHNI
modifications: biotin (EZ-link NHS-biotin; sites not stated) | biotin (EZ-link NHS-biotin; sites not stated)

Tests used:
[1] = molecular target: B2; test: BLI; kinetic fit
[2] = molecular target: B2; test: BLI
[3] = molecular target: T1, PmSLP-1^95-318 SERp (Pasteurella multocida strain 36950); test: BLI
[4] = molecular target: T1, PmSLP-1^95-318 SERp; test: BLI; kinetic fit

Row | Binder | Kd [1] | koff [2] | koff [3] | Kd [4]
1 | B1 | 18 nM | 0.0059 s⁻¹ |  | 
2 | B2 |  |  | 0.008 s⁻¹ | 30 nM
